Our source for the C50 values is US20080050396A1 (SURVAC, published 2008).

The labels stand for the following.
B1: bcl172 (peptide)
peptide: NIALWMTEYL
notes: The end of the range is worked out from the printed start and the peptide length
B2: bcl208 (peptide)
peptide: PLFDFSWLSL
notes: as for B1
B3: bcl218 (peptide)
peptide: KTLLSLALV
notes: as for B1
B4: bcl124 (peptide)
peptide: FTARGRFATV
notes: as for B1
B5: bcl222 (peptide)
peptide: SLALVGACI
notes: as for B1
B6: Bcl85 (peptide)
peptide: ALSPVPPVV
notes: as for B1
B7: bcl214 (peptide)
peptide: WLSLKTLLSL
notes: as for B1
B8: bcl180 (peptide)
peptide: YLNRHLHTWI
notes: as for B1
B9: Bcl224 (peptide)
peptide: ALVGACITL
notes: as for B1
B10: bcl220 (peptide)
peptide: LLSLALVGA
notes: as for B1
B11: bcl80 (peptide)
peptide: AAAGPALSPV
notes: as for B1

The assay addresses HLA-A2 (human). Nature of the assay: assembly assay: peptide stabilisation of HLA-A2 from T2 lysate, W6/32 immunoprecipitation.
Molecule B1 gave a C50 of 2 µM.

B2 had a C50 of 7 µM.

In turn, B3 gave a C50 of 2 µM.

B4 had a C50 of 1 µM.

B5 returned a C50 of 1 µM.

B6: the C50 amounted to 1 µM.

B7 gave a C50 of 3 µM.

As to B8, the C50 worked out at 15 µM.

With B9, the C50 is 0.7 µM.

For B10, the C50 came out at 1 µM.

Regarding B11, the C50 stood at 36 µM.
